# T1: FLAG-TCF4, full length human TCF4 expressed from pFLAG-CMV-4, Q9NQB0
# T1 chain: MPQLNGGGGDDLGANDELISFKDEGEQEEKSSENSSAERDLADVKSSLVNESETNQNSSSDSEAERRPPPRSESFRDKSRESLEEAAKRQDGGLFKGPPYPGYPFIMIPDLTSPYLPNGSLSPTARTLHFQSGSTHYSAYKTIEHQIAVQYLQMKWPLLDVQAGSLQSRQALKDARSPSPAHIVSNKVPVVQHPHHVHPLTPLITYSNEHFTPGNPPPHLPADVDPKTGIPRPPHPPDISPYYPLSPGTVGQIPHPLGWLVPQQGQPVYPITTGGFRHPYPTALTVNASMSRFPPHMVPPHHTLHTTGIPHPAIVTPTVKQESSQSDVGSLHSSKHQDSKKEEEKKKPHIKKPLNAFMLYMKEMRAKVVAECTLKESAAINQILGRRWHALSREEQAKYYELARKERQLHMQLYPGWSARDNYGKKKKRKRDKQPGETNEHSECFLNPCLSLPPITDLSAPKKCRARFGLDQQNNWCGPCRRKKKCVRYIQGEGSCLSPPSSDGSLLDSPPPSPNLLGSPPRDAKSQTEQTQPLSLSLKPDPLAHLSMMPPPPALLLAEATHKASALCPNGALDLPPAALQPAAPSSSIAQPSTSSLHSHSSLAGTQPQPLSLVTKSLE
# Molecular target: T1, FLAG-TCF4, full length human TCF4 …
protein,measurement,value
"HA-TNIK K54R, ATP binding site mutant of human TNIK expressed from pCIneo-HA-TNIK K54R (protein) MASDSPARSLDEIDLSALRDPAGIFELVELVGNGTYGQVYKGRHVKTGQLAAIRVMDVTGDEEEEIKQEINMLKKYSHHRNIATYYGAFIKKNPPGMDDQLWLVMEFCGAGSVTDLIKNTKGNTLKEEWIAYICREILRGLSHLHQHKVIHRDIKGQNVLLTENAEVKLVDFGVSAQLDRTVGRRNTFIGTPYWMAPEVIACDENPDATYDFKSDLWSLGITAIEMAEGAPPLCDMHPMRALFLIPRNPAPRLKSKKWSKKFQSFIESCLVKNHSQRPATEQLMKHPFIRDQPNERQVRIQLKDHIDRTKKKRGEKDETEYEYSGSEEEEEENDSGEPSSILNLPGESTLRRDFLRLQLANKERSEALRRQQLEQQQRENEEHKRQLLAERQKRIEEQKEQRRRLEEQQRREKELRKQQEREQRRHYEEQMRREEERRRAEHEQEYIRRQLEEEQRQLEILQQQLLHEQALLLEYKRKQLEEQRQAERLQRQLKQERDYLVSLQHQRQEQRPVEKKPLYHYKEGMSPSEKPAWAKEVEERSRLNRQSSPAMPHKVANRISDPNLPPRSESFSISGVQPARTPPMLRPVDPQIPHLVAVKSQGPALTASQSVHEQPTKGLSGFQEALNVTSHRVEMPRQNSDPTSENPPLPTRIEKFDRSSWLRQEEDIPPKVPQRTTSISPALARKNSPGNGSALGPRLGSQPIRASNPDLRRTEPILESPLQRTSSGSSSSSSTPSSQPSSQGGSQPGSQAGSSERTRVRANSKSEGSPVLPHEPAKVKPEESRDITRPSRPASYKKAIDEDLTALAKELRELRIEETNRPMKKVTDYSSSSEESESSEEEEEDGESETHDGTVAVSDIPRLIPTGAPGSNEQYNVGMVGTHGLETSHADSFSGSISREGTLMIRETSGEKKRSGHSDSNGFAGHINLPDLVQQSHSPAGTPTEGLGRVSTHSQEMDSGTEYGMGSSTKASFTPFVDPRVYQTSPTDEDEEDEESSAAALFTSELLRQEQAKLNEARKISVVNVNPTNIRPHSDTPEIRKYKKRFNSEILCAALWGVNLLVGTENGLMLLDRSGQGKVYNLINRRRFQQMDVLEGLNVLVTISGKKNKLRVYYLSWLRNRILHNDPEVEKKQGWITVGDLEGCIHYKVVKYERIKFLVIALKNAVEIYAWAPKPYHKFMAFKSFADLQHKPLLVDLTVEEGQRLKVIFGSHTGFHVIDVDSGNSYDIYIPSHIQGNITPHAIVILPKTDGMEMLVCYEDEGVYVNTYGRITKDVVLQWGEMPTSVAYIHSNQIMGWGEKAIEIRSVETGHLDGVFMHKRAQRLKFLCERNDKVFFASVRSGGSSQVFFMTLNRNSMMNW","serine phosphorylation of TCF4 (immunoprecipitation with anti-TCF4, immunoblot with anti-phospho-serine antibody)",significant serine phosphorylation was not observed compared with control

# From patent US20090215081
